Reference: the DeepSol protein solubility set

Assay: soluble on expression in E. coli; label from the status in PepcDB or PDB records

Sequence	soluble on expression in E. coli
MGEAVEVMFGNGFPEIHKATSPTQTLHSNQQDCHWYEETIDDDLKWSFALNSVLHQGTSEYQDIALLDTKRFGKVLVIDGKMQSAERDEFIYHECLIHPALLFHPNSPKTVFIMGGGEGSAAREILKHTTIEKVVMCDIDQEVVDFCRRFLTVNSDAFCNKKLELVIKDAKAELEKREEKFDIIVGDLADPVEGGPCYQLYTKSFYQNILKPKLSPNGIFVTQAGPAGIFTHKEVFTSIYNTMKQVFKYVKAYTAHVPSFADTWGWVMASDHEFDVEVDEMDRRIEERVNGELMYLNAPSFVSAATLNKTISLALEKETEVYSEENARFIHGHGVAYRHI	soluble
LQERELAKAAQEAEKKGEAFPDVPVTLYEAIVRDYTGRTPEAREQTLIVTHLNEDRRVLNSMIQDALAKPGEQQVTVPVLTTANIRDGELRRLSTWEAHPGALALVDNVYHRIAGISKEDGLITLEDKAGNTRLISPREAAAEGVTLYNPETIRVGAGDRMRFTKSDRERGYVANSVWTVTAVSGDSVTLSDGKQTRVVRPGQDRAEQHIDLAYAITAHSAQGASETFAIALEGTEGGRKQMAGFESAYVALSRMKQHVQVYTDDRQGWVKAINSAEQKGTAHDVLEPKSEREMMNAERLFSTARELRDVAAGRAVLRNAGLAQGDSRARFIAPGRKYPQPYVALPAFDRNGKSAGIWLNPLTTDDGAGLRGFTGEGRVKGSEEAQFVALQGSRNGESLLAGSMQDGVRIARENPDSGVVVRIVGDGRPWNPVAITGGRVWGDIPDSNVQPGAGNGEPVTAEILAQRQAEEAVRRETERRADEIVRKMAEDKSDLPEEKTAQAVREIAGQEQDRMTPPEREPPLPESVLREPQRER	not soluble
MIKWPWKAQEITQNEDWPWDDALAIPLLVNLTAQEQARLIALAERFLQQKRLVALQGFELDSLKSARIALIFCLPILELGIEWLDGFHEVLIYPAPFVVDDEWEDDIGLVHSQRVVQSGQSWQQGPIILNWLDIQDSFDASGFNLIIHEVAHKLDMRNGDRASGIPFIPLRDVAGWEHDLHAAMNNIQDEIDLVGESAASIDAYAATDPAECFAVLSEYFFSAPELFAPRFPALWQRFCQFYRQDPSQRLRVSAAEGDYGEESEH	not soluble
MKVDLNADAGESYGAFAYGHDREIFPLVSSANLACGFHGGSPGRILEAVRLAKAHGVAVGAHPGFPDLVGFGRREMALSPEEVYADVLYQIGALSAFLKAEGLPLHHVKPHGALYLKACRDRETARAIALAVKAFDPGLPLVVLPGTVYEEEARKAGLRVVLEAFPERAYLRSGQLAPRSMPGSWITDPEEAARRALRMVLEGKVEALDGGEVAVRADTLCIHGDNPNAPEVARAVREALEQAGVEVRAF	soluble
MNNNTTAPTYTLRGLQLIGWRDMQHALDYLFADGQLKQGTLVAINAEKMLTIEDNAEVRELINAAEFKYADGISVVRSVRKKYPQAQVSRVAGADLWEELMARAGKEGTPVFLVGGKPEVLAQTEAKLRNQWNVNIVGSQDGYFKPEQRQALFERIHASGAQIVTVAMGSPKQEIIMRDCRLVHPDALYMGVGGTYDVFTGHVKRAPKIWQTLGLEWLYRLLSQPSRIKRQLRLLRYLRWHYTGNL	soluble
AHHHHHHGSRYFFYPNSVAIFGSFREGAIAREILRNIVEGGFEGKIIPVNPKGGEVEVAGKKFNIKEKLDEPVDVSIIAIPAKLVPELIRGLKGLTKGAVVISAGFSEVGNVELEKELIKAAKEAGIRVIGPNCAGIFGVHAKFYGSFEVRVNPGGLALISQSGAFGGAALAMGNEEGIGFSAFVSYGNAADLDESDFLRFFADDENTRVIGLYIEGVKDGRKFLDALRYAASKKPVIILKAGKSRAGARAAASHTGSLAGSYEIYRAAFRQAGAIEVEEMEELFDAAKAFEMYERAGRRVAIITNSGGPGVLATDKLERLGLEIAKLTEETVEELRSFLPPQCSVKNPVDLIADADYERYKRAIEVVCRDENVDAILVICVPPIFIPSEEIARAVVEANCDKPIIVNFMAGELVREGIKILESKKIKNFPTPERAAKALYWLSLRSSSE	soluble
MSLRKYPEYTWDLTTIFKDDEAFEAAFKEVENELGKEEQFKGHIGDSAETLYNALELEDTLGTKLEKVYVYAHLKQDQDTTNDKYTGMESRAHQLIIKFSSAWSFLVPEILQIDEDKIQSFVNSYDKLQKFAFDLKLINEKRPHILDAETEKLLTEAQDALSTPSNVYGMFSNADLVFEDAIDKDGNAHPLTQGTFIKYLESDDRKLRESAFRNVYKAYGAHNNTLGATLAGEVKKNVFNARTHNYKTAREKALSNNHIPENVYDNLVKTVHKYLPLLHRYTELRKELLGLDDLKMYDLYTPLIKDIKFEMPYEEAKEWMLKALEPMGEEYLNVVKEGLNNRWVDVYENKGKRSGGYSSGAHLTNPFILLNWSNTISDLYTLVHEFGHSAHSYFSRKFQPSNSSDYTIFVAEVASTCNEALLSDYMDKHLDDEKRLLLLNQELERFRATLFRQTMFAEFEHKIHAIEEAGEPLTPTRMNEEYAKLNKLYFGDSVETDEDISKEWSRIPHFYMNYYVYQYATGYSAAQSLSHQILTEGKPAVDRYINEFLKKGSSNYPIEILKNAGVDMTTPEPIEQACEVFEQKLNAFEKLMKEGHHHHHH	soluble
MGSDKIHHHHHHMLEEGEHVLVAVSGGIDSMTLLYVLRKFSPLLKIKITAAHLDHRIRESSRRDREFVERICRQWNIPVETSEVDVPSLWKDSGKTLEEIAREVRYDFLKRTAKKVGASKIALAHHKNDLLETVVHRLIRGTGPLGLACISPKREEFIRPFLVFKRSEIEEYARKNNVPYVVDETNYNVKYTRNFIRHRIVPLMKELNPTVEDAVYRLVSVTHLLRNFVERTVQDFVERNVYFYKDYAVFVEPEDLFLFLEVTRWVLKEMYGRVPEYEKLIGTLKSKRVELWSGIFVERSFGYVAVGKTVFKKKYRVEVKGDMLEMEGFKIRVVNNRNDMKFWVRNRKEGDRIIVNGRERKLKDVFIEKKVPTFYRDRVPLLVDEEDRVLWVPGIARSDFLPEDVVVELLEYPVGYVKGGTYFEQV	not soluble
MASLAAVVRALLRRESQRATGYALREWTMLTARHLPYLQGQLTLGRIAAVGHLQRSTLGRSEWHTSSAPLFGEGRGRWHWGLSTSDVVDGSDHEHHSTETGGRELPSFKTGELGSDVDGDRAALEAWLAQIRDETSGWPELSLDALRDELDEELEGDDDDNDDDDDETYENEELLKALQEAVNRHRTPVVALVSGRVVHLRRTAAPKRSPRAGRVPRNEPQTTSRDTTKADANDNECT	soluble
MGSDKIHHHHHHMTSPNTTQGAADPIQSYLNQGLRNYWYPVAPSWQVGDAPVGITRLGDQIVLWRDKEGKVRALEDRCPHRGARLSLGWNLGGSVACWYHGIEVDGGGTVTKVPAVSNCPLEGQKCVKSYPVEEHAGAIFLWFGDDAHKEPAPLVLPEELVGEEYASFLCMSHWKCNYQYAIDNVMDPMHGAYLHATSHSMAEGDKQADMRVRKTETGLMFEKIGQRDVNFDWVELGETGCLWMRLAIPYKKKFGPGGNFGIIGFAVPVDEDNCQVYFWRTRKVQGWQRDAWRFMYRNRLEGLHWAVLEQDRYVLESMAPNARDHEFLYQHDVGMTRVRRMLRQRAQQHFADLDAHRAQAVSATPAAAEAGHSHA	not soluble
MKLIKNAEFGGERPLFESHDLRLENVIIRTGESAIKECSNIETVDCRFEGNYPFWHVHGFKIDRCYFDVGGRSALWYSDHLKMTDTIIDAPKMFREMDEIDIENVTMNDADEVFWRCNGIRIKNLKLHGGTYPFMFSNNIYVDGLESNSKYVFQYVKNVEIHHAKITTKDAFWEVENVTIYDSELNGEYLGWHSKNLRLVNCHITGEQPLCYAHDLILENCTFGPDCDRTFEYSTLQADIHGAITNIKNPMSGCIVADEFGSITIDENIKAPADCEIRLRDERTCFTD	soluble
GTREQALGPALSFSTEGEFLKVRILDPVADSRRYNEEFKAQGLDIELVLIPASPSQVGQADGQLYSGSNTRQRIRFESVPAGCVEAATYPCVPEFTIPKDYRGTARFGINRAAAPGEQYAATGALNGRDEPLEGIQWLNRPVGEISAILRQRGFSITYRWPTGRQNPNATPPPTWYVIEPSFARQNNLVELEVSPRPMK	not soluble
MSLPNIDSLFVTRLYRAALSEHGPAIDAKEMEASCYSIAEDDEAGQGWCDENGYPGYTSYASLSDLPWRFPIFADLVKVLDAHVAAFAEDLEFDLDGKELKLEDIWINILPEGGMHASHIHPHSVISGTTYVAMPEGTSALKLEDPRSARMMASPVRRKDARQELRTFIYAKPVVGDVLLWESWLRHEVPMNMSEEDRISVSFNYSWGEGHHHHHH	soluble
MPGVKVKETESFELALKKFKKQCEKAGILSEVRKREHYEKPSIKRKKKAIAARKRAMKKQRKMMDLEHHHHHH	not soluble
MGSDKIHHHHHHVTTVTRSFDDAWRRWIAENLLLDAPPSALHGALLGHGFDAADVTREIEAALASPYFHGAARLRNRLRKREWILSVYSELNRMRAASGVIERCERLSRDAFFEQYYFQNRPVIITGAFDFWPACSRWNWDYLRRQCGDCEVEVQFGRESDANYEINQPRLTRMMRFADYVDLVEQRGPTNDFYMTANNTSRNRAALAALWSDVPPIDAYLDAASPDTGFFWMGPAGTKTPFHHDLTNNFMAQVIGRKHIKLVPLSDTPYMANHLHCYSRVDGGAIDFDSFPSMRQAQLIECTLAPGELLFLPVGWWHYVEGIDASVTMTFTNFLRSNDFSRRYDTYHEL	not soluble
MVVDTEYYDLLGVSTTASSIEIKKAYRKKSIQEHPDKNPNDPTATERFQAISEAYQVLGDDDLRAKYDKYGRKEAIPQGGFEDAAEQFSVIFGGDAFASYIGELMLLKNLQKTEELNAEDEAEKEKENVETMEESPADGKTNGTTNAVDAALGNTNEKDDKNKARTTSGNLTVHDGNKKNEQVGAEAKKKKTKLEQFEEEQEVEKQKRVDQLSKTLIERLSILTESVYDDACKDSFKKKFEEEANLLKMESFGLDILHTIGDVYYEKAEIFLASQNLFGMGGIFHSMKAKGGVFMDTLRTVSAAIDAQNTMKELEKMKEASTNNGPLFDKDGNEQIKPTTEELAQQEQLLMGKVLSAAWHGSKYEITSTLRGVCKKVLEDDSVSKKTLIRRAEAMKLLGEVFKKTFRTKVEQEEAQIFEELVAEATKKKRHT	not soluble
GPGSMSLWGGFSNPTSYSDSGLEKRLEFDFAAAVDVQTFAVEELEDVLAAAGQKLQHHFSAEGLLSLEMTQCIIILTPCKLVVTSASEVMLHQVITPTIALLTSKGVRVEWASYLRKNTTSPWCAESEMSDIMAQEYAELKAAFPAGKSFLTGPVDGHHCFNFVYDNVERIAGRKEEDVQVNVFLNDVAAGLEEVNKTTQRFHALQSGEYEVMRTFAGVPCISFETNAKAAVASPTRVQKLLDTFQPTHFTVAALQDRDADESALRCNFNAFTPYTLQNRTVNLFGEGYAFHQLLFARSAD	soluble
MPLSGEYAPSPLDWSREQADTYMKSGGTEGTQLQGKPVILLTTVGAKTGKLRKTPLMRVEHDGQYAIVASLGGAPKNPVWYHNVVKNPRVELQDGTVTGDYDAREVFGDEKAIWWQRAVAVWPDYASYQTKTDRQIPVFVLTPVRAGG	soluble
MSLSKTRTFLFDLYGVLIKEHGAAQFERVARAVGEPSKNDKLHEVYESLRLDLDAGRVSEVNYWNQIKLLVGLEFLDIQEVIAADYRGLYERDQDMVDYVLSLKAKGHRIGILSNIPEGLAKLLKEHNSEWLDQLDAVTLSCDIGAAKPEPKSFHVALEALGEKAEDVTFIDDRVRNIEAAREEGLSTIHFTGLDSLKESIQEGHHHHHH	soluble
MLEIEIVYGLPDRQVLKTMQLAEGTTVRAAALQSGLDGIFEDLNLHSAPLGIFGKAVKDDTPLRDGDRIEVYRPLLIDPKEARRKRVQNQEE	not soluble
